Experiments:
[1] = tested on: DV2; assay type: cell-based, dengue virus; details: protein 25 μg/mL pre-incubated with virus 1 hour at 25° C.
Protocol: (§1) FIG. 21. Chromatographic profile of the purification of the A2MR using affinity chormatography with immobilized A2M (A) and SDS-PAGE analysis of fractions eluted using a 5-15% gradient gel (B). Effect of the pre-incubation of chromatography fractions with DV2 on the infection of Vero cells (C). The plaque reduction neutralization assay was performed as described in FIG. 20. (D) Mice protection assay using the DV-induced encephalitis model.
To this aim, a viral preparation containing 100 infective viral particles was pre-incubated with the different fractions at a protein concentration of 25 μg/mL for 1 hour at 25° C. Next, the virus was added to Vero cell monolayers and infection was allowed to occur for 45 minutes at 37° C. Afterwards virus/protein mixtures were removed, the cells were washed with fresh medium and finally the cells were incubated for 5 days at 37° C. in high density medium.

[2] = tested on: DV2; assay: Mice protection assay using the DV-induced encephalitis model; assay type: in vivo, Balb/C mice; details: intra-cranial lethal dosis of DV2 (FIG. 21D)
Protocol: as §1
FIG. 22. Mice protection assay using the DV-induced encephalitis model. PepNR GAGs binding: peptide formed by a sequence fragment of binding to glycosaminoglycans and a non-related sequence fragment.
Groups of 12 adult Balb/C mice (20 g average body weight) were anesthesized, inoculated by intracranial injection with lethal dosis of DV2 and observed daily for 21 days. The mixtures of peptides with the virus were inoculated in the same way. The volume of the sample inoculated was 20 μL.
The mouse model of dengue encephalitis was used to investigate the potential of the peptide HDIII3CL to protect against DV2 infection. A group of 12 mice were inoculated with lethal dosis of DV2 in combination with 15 μg and 1.5 μg of HDIII3CL peptide. As negative control was used a peptide composed by fragment of 14 aminoacids of a sequence with known heparin binding activity followed by 16 aminoacids of a sequence non-related to the envelope protein of DV. […]

[3] = tested on: DV1 West Pac 74; assay: Inhibition of the infection of Vero cells by a natural ligand of the A2MR receptor or anti-receptor antibodies (lytic plaques); assay type: cell-based, dengue virus; details: inhibition percentage; RAP13 and BSA 100 μg/mL, antibody preparations 1/100 dilution; average of three determinations
Protocol: (§2) Vero cells were grown in 24-well plates to approximately 90% confluence, and washed twice with MEM medium without FCS. The dilutions containing the proteins or the antibodies, according to the objective of the assay, were then added and incubated for 1 hour at 37° C. After the incubation, the virus was added at a multiplicity of infection of 0.1, followed by a subsequent incubation for 1 hour at 37° C. At the end of the second incubation, the unbound virus was eliminated by washing, and the cells were incubated for 5 days at 37° C. in high density medium (MEM supplemented with non essential aminoacids, 1% FCS, 1% carboxymethylcellulose) in order to propitiate the appearance of lytic plaques. The plaques were visualized by staining with 0.1% Naphtol Blue Black in 0.15 Mol/L sodium acetate. Two replicates were used per experimental point in each assay, and three independent determinations were performed. The inhibition percentage was calculated according to the expression
(§3) The assay for the inhibition of infection was performed on 24-well plates seeded with a monolayer of Vero cells at approximately 90% confluence. The dilution of the virus was adjusted to obtain approximately 20 lytic plaques per well. […] There were no significant reductions when the cells were pre-incubated with BSA or with antibody preparations against an unrelated antigen.

[4] = tested on: DV3 CH53489; assay: as above; assay type: cell-based, dengue virus; details: inhibition percentage; RAP13 and BSA 100 μg/mL, antibody preparations 1/100 dilution; average of three determinations
Protocol: as §2, §3

[5] = tested on: DV4 TVP360; assay: as above; assay type: cell-based, dengue virus; details: inhibition percentage; RAP13 and BSA 100 μg/mL, antibody preparations 1/100 dilution; average of three determinations
Protocol: as §2, §3

[6] = tested on: DV2 S16803; assay: as above; assay type: cell-based, dengue virus
Protocol: FIG. 8. Effect of recombinant RAP on the infection of Vero cells with DV2, strain S16803. Vero monolayers at 90% confluence were pre-incubated with different dilutions of RAPR13 or BSA, for 1 hour at 37° C., followed by the addition of the viral preparation at a multiplicity of infection of 1 and another incubation at 37° C. for 1 hour. After eliminating the unbound viruses, MEM medium supplemented with non-essential aminoacids, 1% FCS and 1% CMC was added, and the cells were incubated for 5 days at 37° C. The lytic plaques were visualized by staining the monolayer with Naphtol Blue Black. The assays were performed in 24-well plates, using duplicates for each point of the assay.
Vero cells were grown in 24-well plates to approximately 90% confluence, and washed twice with MEM medium without FCS. The dilutions containing the proteins or the antibodies, according to the objective of the assay, were then added and incubated for 1 hour at 37° C. After the incubation, the virus was added at a multiplicity of infection of 0.1, followed by a subsequent incubation for 1 hour at 37° C. […] The inhibition percentage was calculated according to the expression […]

[7] = tested on: Vero cells; assay: Binding of fluoresceinated proteins to the surface of Vero cells (flow cytometry); assay type: cell-based, monkey
Protocol: FIG. 7. Inhibition of the binding of DIIIE2J to Vero cells by A2M and RAPR13. The pre-fixed cells were incubated with the fluoresceinated proteins, and the intensity of the fluorescence due to binding of the fluoresceinated ligands to the cells was measured by flow cytometry. Each experimental point represents data gathered from a minimum of 20 000 cells. (A) Binding of A2M and RAPR13 to the cells. The depicted values correspond to the average of the intensity of the fluorescence at each point of the assay minus the fluorescence obtained with untreated cells. (B) and (C) The cells were incubated with fluoresceinated DIIIE2J in the presence or absence of the non-fluoresceinated ligands, using the molar ratio indicated on each case. The % binding was calculated from the ratio of the average intensity of the fluorescence of the cells incubated with the mixture of fluoresceinated DIIIE2J plus the proteins, between that of the cells incubated only with fluoresceinated DIIIE2J.
In the case of cultured Vero cells, they were detached from the surface of the culture flask without using proteases, by incubation with PBS pH 7.4, 5 mM EDTA for 10 min. at 37° C., gently tapping the outside of the flask.
The cells, collected and washed as described above, were incubated in fixing solution (PBS pH 7.4, 2% paraformaldehyde, 0.01% NaN3, 1 mM CaCl2, 1 mM MgCl2 for 30 min at 4° C., and the fixing solution was then eliminated by centrifugation at 350×g for 5 min a 4° C. […] The intensity of the fluorescence was quantified by flow cytometry on a PAS III cytometer (Partec, Germany). The values for each experimental point were calculated from measurements on a minimum of 20 000 cells.
Given that this cell line is derived from monkey kidney cells and that the ligands for the A2MR receptor used in the assays are of human origin, a preliminary and necessary step was the corroboration of the binding of the RAPR13 and A2M MeNH2 proteins to Vero cells. With this aim, these proteins were fluoresceinated, and their binding to the surface of Vero cells was measured using flow cytometry. […]

Molecule | neutralization of the infection of DV2 [1] | protective effect in mice encephalitis model [2] | inhibition of the infection, DV1 [3] | inhibition of the infection, DV3 [4] | inhibition of the infection, DV4 [5] | inhibition of the infection, DV2 ([6]; inhibition percentage, RAP13 and BSA 100 μg/mL, antibody preparations 1/100 dilution, average of three determinations) | inhibition of the infection for DV2, concentration dependence ([6]; lytic plaque reduction assay, dilutions of RAPR13 (FIG. 8)) | binding to the surface of Vero cells ([7]; fluoresceinated proteins (FIG. 7A)) | binding of fluoresceinated A2M_MeNH2 to Vero cells in the presence of unlabelled protein ([7]; unlabelled protein at 100-fold molar excess, 30 min. at 4° C. (FIG. 7B))
Purified A2MR: α-chain of the A2MR receptor purified from human plasma by affinity chromatography on immobilized MeNH2_A2M | potent neutralization | significative protective effect | – | – | – | – | – | – | –
RAPR13: recombinant human LRPAP1 (RAP) protein with N-terminal tag of 6 histidines, SEQ ID. 26 (protein, listed as Homo sapiens, N-terminal His6 tag) MGSSHHHHHHSSGLVPRGSHMYSREKNQPKPSPKRESGEEFRMEKLNQLWEKAQRLHLPPVRLAELHADLKIQERDELAWKKLKLDGLDEDGEKEARLIRNLNVILAKYGLDGKKDARQVTSNSLSGTQEDGLDDPRLEKLWHKAKTSGKFSGEELDKLWREFLHHKEKVHEYNVLLETLSRTEEIHENVISPSDLSDIKGSVLHSRHTELKEKLRSINQGLDRLRRVSHQGYSTEAEFEEPRVIDLWDLAQSANLTDKELEAFREELKHFEAKIEKHNHYQKQLEIAHEKLRHAESVGDGERVSRSREKHALLEGRTKELGYTVKKHLQDLSGRISRARHNEL | – | – | 65 | 60 | 75 | 76 | dependent on the protein concentration | concentration-dependant and saturable binding behavior | decrease in fluorescence

Reference: patent US8420311B2, “Method to block the infection by flaviviruses, molecules and uses” (Centro de Ingenieria Genetica y Biotecnologia, priority 2006, dated 2013)
